Measurements: US20030203372A1, “Analysis method” (priority 2000, published 2003)

B1: p1G21 (nucleic acid, listed as Homo Sapiens)
DNA: TTTTACATACTAGATTTATTAAAGTGACCATAAGTGCCGAAGCGGTTTTCTAATGGAAAGCAGACTGGATTCACAACACAGAAGCAGAATTGGTGGAACAGGCTTTCGGGAACTTTCTTCCCCTGGTCACACGGCAGATCGGTCCCCAAGGACAGGTGCTCAGCCAGGACTTTTGCTTTAAGAAGGATTTGTCTNGAGAAAGGACTAGAGAGAAATCCAGCTCAGATGTATTGCTCATTCCTCTTCAGAAGGACTGGGTNGGAATGGAGCAGGGGCTAGAGGAATCTGGAAGCTAATTCTTTTAGGCTTTTTCCAACAGAGGGAAGCAGAGGGACTTCTGGGTCTTGAAGTTTGGAGCTTACGGAGGCGA
modifications: misc_feature 195, 260: n = A,T,C or G
B2: p1G22 (nucleic acid, listed as Homo Sapiens)
DNA: TTTTTTTTTGTTTCTGTTTTGTTTTTTCTTTTGCACTGATATATACCATACCAACATTGCAAGATGCAAAGTGTGGAAACTGGAGTTTAAATAAAATTACAAGGCAAAACTACCCCATCCCAAGTGCGGTTGCTGTACATATCTACAGTACAATTTTTGGAATGTATTGCCATTTAAGAACATAGAAACTTTCTACAGACAATTTCACATACAGAATACGTACACCTTTTAGAAAAAAAGGCAAATATTTATCTTACAGAGAGCATTGTATTTTACATTTGCCTGCACGTTTCTTTTTTCTGTTTCTTTTCTTTCTTTCTTTTTTTACATACTAGGATTTATTAAAGTGACCATAAGGTGCCCGANGCGGGTTTTCTAATGGGNAAGCAGACTGGGNTTCACCAACACAGGNGCAGGATTGGGTGGGACAGGCTTTCGGGGACCTTTCTTCCCCTGGGNCACACGGGCAGATCCGGTCCCCAAGGGCAGGNTGTTCAGCCNGGGGCTTTTNCTTTT
modifications: misc_feature 366, 384, 397, 412, 459, 491, 501, 511: n = A,T,C or G

System: primary human cell cultures (11 cell types)
Test: Custom gene array, 11 human cell types in normoxia or hypoxia for 6 hr and 18 hr
Type: cell-based
Conditions: for HIGHEST FOLD CHANGE IN HYPOXIA (hr hypoxia + cell type): DOWN
Experimental: Equivalent cultures of non-immortalized, non-transformed primary human cells of 10 distinct types, were cultured in either normoxia or were exposed to hypoxia for 6 hr and 18 hr, and gene expression changes were determined. […] Moreover, unlike the vast majority of information in the public domain relating to genes responsive to hypoxia, all of these cells were human and were cultured without any modifications following isolation from the human donors.
A non-primary cell type (#9) was used to represent neurons, since primary human neurons are difficult to source. Therefore a total of 11 cell types are compared. It should be noted that RNA from hepatocytes at the […] timepoint of hypoxia was not available for this work.
Each RNA sample was hybridised to duplicate or triplicate arrays, to ensure reproducible data, and was analysed using GeneSpring software. Data from replicate arrays were merged during analysis to generate mean values. Data normalisation was achieved per-array using the aforementioned list of control genes, such that differences in RNA labelling or hybridization due to experimental variation were corrected by referencing each gene to the mean value of the reference genes on the same array. Also, for each gene, expression values were obtained which represent the value in each experimental condition (e.g. macrophages 6 hr hypoxia) as compared to the median of value of that gene throughout the full range of experimental conditions (i.e. from all cell types). […] This is common in microarray data analysis.

[1] = cell type #1, HY (hypoxia) 6 hr
[2] = cell type #1, HY (hypoxia) 18 hr
[3] = cell type #2, HY (hypoxia) 6 hr
[4] = cell type #2, HY (hypoxia) 18 hr
[5] = cell type #3, HY (hypoxia) 6 hr
[6] = cell type #3, HY (hypoxia) 18 hr
[7] = cell type #4, HY (hypoxia) 6 hr
[8] = cell type #4, HY (hypoxia) 18 hr
[9] = cell type #5, HY (hypoxia) 6 hr
[10] = cell type #6, HY (hypoxia) 6 hr

Molecule	HIGHEST FOLD CHANGE IN HYPOXIA (hr hypoxia + cell type) (6 hr macrophage)	mRNA expression level [1]	mRNA expression level [2]	mRNA expression level (cell type #1, NO (normoxia))	mRNA expression level [3]	mRNA expression level [4]	mRNA expression level (cell type #2, NO (normoxia))	mRNA expression level [5]	mRNA expression level [6]	mRNA expression level (cell type #3, NO (normoxia))	mRNA expression level [7]	mRNA expression level [8]	mRNA expression level (cell type #4, NO (normoxia))	mRNA expression level [9]	mRNA expression level (cell type #5, NO (normoxia))	mRNA expression level [10]	mRNA expression level (cell type #6, NO (normoxia))	HIGHEST FOLD CHANGE IN HYPOXIA (hr hypoxia + cell type) (18 hr mam epithelial)
B1	1.85 DOWN (6 hr macrophage) ^ fold	1.01	0.55	0.99	1.48	1.10	2.02	1.13	0.80	1.54	0.65	0.60	0.78	1.35	0.72	0.69	1.28	–
B2	–	0.78	0.72	1.14	2.67	1.41	2.75	12.7	8.79	8.35	1.21	1.01	1.35	0.70	0.59	0.63	0.77	2.38 DOWN (18 hr mam epithelial) ^ fold
